Laboratory results as given in patent US11440969B2, “Use of human epididymis protein 4 (HE4) for assessing responsiveness of MUC 16-positive cancer treatment” (Genentech, Inc., priority 2016, dated 2022).
Several values for one entry are separate records, joined by “and”; a condition that tells them apart may be missing. Equal values may be shown once.

Assays:
[1] = DMUC5754A pharmacokinetics in patients (total antibody ELISA; acMMAE and unconjugated MMAE LC/MS/MS); type: in vivo, human
Text: Pharmacokinetics (PK) of DMUC5754A was characterized following q3w or qlw dosing schedules in both OC and PC patients. Serum or plasma samples at multiple pre-specified time points were quantified for three analytes (unconjugated MMAE, DMUC5754A total antibody, and DMUC5754A conjugate (measured as antibody-conjugated MMAE, acMMAE)). Total antibody (antibody with MMAE-to-antibody ratio equal or greater than zero, including conjugated, partially deconjugated and fully deconjugated antibody) were analyzed using validated enzyme-linked immunosorbent assay methods with the minimum quantifiable concentration of 60 ng/mL. Plasma acMMAE and unconjugated MMAE were determined by using validated LC/MS/MS assays. The lower limit of quantitation (LLOQ) for the acMMAE assay and unconjugated MMAE were 0.359 ng/mL and 0.0359 ng/mL in human plasma, respectively. PK data after Cycle 1, Day 1 dose of DMUC5754A were analyzed with non-compartmental analysis using Phoenix WinNonlin 6.2 (Certara, L. P.), and further evaluated based on dose regimen and cancer type.

[2] = system: platinum-resistant ovarian cancer; experiment: Clinical activity of DMUC5754A (RECIST v1.1) in ovarian cancer patients; type: in vivo, human
Description: This multicenter, open-label, dose-escalation study was designed to identify the recommended Phase II dose (RP2D) of DMUC5754A in patients with platinum-resistant OC or unresectable pancreatic cancer. In the single-agent dose escalation stage utilizing a 3+3 enrollment scheme, patients were given intravenous DMUC5754A (Genentech Inc.) 0.3-3.2 mg/kg every 3 weeks (q3w) to evaluate the safety, tolerability, and pharmacokinetics of DMUC5754A. Following determination of the maximum tolerated dose (MTD), dose-expansion cohorts were enrolled at the RP2D of 2.4 mg/kg to further characterize the safety and preliminary clinical efficacy of DMUC5754A.
Dosing on a weekly (qlw) schedule was also evaluated at the RP2D, employing a 3+3 design to determine the MTD of weekly dosing, followed by a cohort expansion to further characterize the safety and activity of q1w dosing.
OC patients had advanced, epithelial ovarian, primary peritoneal, or fallopian tube cancer that progressed or relapsed within 6 months after the most recent treatment with a platinum-containing chemotherapy regimen and for which no standard therapy exists. […] Progression or relapse from prior platinum-based chemotherapy was documented by RECIST v1.1 or Gynecologic Cancer Intergroup (GCIG) CA125 progression criteria (Vergote et al., 2000). Patients were allowed ≤2 prior chemotherapy regimens.
Objective response rate was estimated only for patients with disease that was measurable by RECIST guidelines. Objective response is defined as a complete or partial response, as determined by investigator assessment and confirmed by repeat assessments ≥4 weeks after initial documentation. Duration of objective response was defined as the time from the initial complete or partial response to the time of disease progression or death.

[3] = Cycle 1, 2.4 mg/kg q3w, OC (n = 29), Mean [SD]
[4] = Cycle 1, 2.4 mg/kg q3w, PC (n = 10), Mean [SD]
[5] = q1w 1st dose, 0.8 mg/kg, OC, N 3
[6] = q1w 1st dose, 1.1 mg/kg, OC, N 7
[7] = q1w 1st dose, 1.4 mg/kg, OC, N 6
[8] = q1w 1st dose, 1.4 mg/kg, PC, N 1
[9] = q1w 1st dose, 1.6 mg/kg, OC, N 4
[10] = q3w 1st cycle, 0.3 mg/kg, OC, N 3
[11] = q3w 1st cycle, 0.6 mg/kg, OC, N 3
[12] = q3w 1st cycle, 1.2 mg/kg, OC, N 3
[13] = q3w 1st cycle, 1.8 mg/kg, OC, N 3
[14] = q3w 1st cycle, 2.4 mg/kg, OC, N 29
[15] = q3w 1st cycle, 2.4 mg/kg, PC, N 10
[16] = q3w 1st cycle, 3.2 mg/kg, OC, N 3

B1: DMUC5754A: antibody-drug conjugate: humanized IgG1 anti-MUC16 monoclonal antibody and MMAE, linked through protease labile linker maleimidocaproyl-valine-citrulline-p-aminobenzyloxycarbonyl (conjugate, chains of the INN, looked up)
VH: EVQLVESGGGLVQPGGSLRLSCAASGYSITNDYAWNWVRQAPGKGLEWVGYISYSGYTTYNPSLKSRFTISRDTSKNTLYLQMNSLRAEDTAVYYCARWTSGLDYWGQGTLVTVSS
VL: DIQMTQSPSSLSASVGDRVTITCKASDLIHNWLAWYQQKPGKAPKLLIYGATSLETGVPSRFSGSGSGTDFTLTISSLQPEDFATYYCQQYWTTPFTFGQGTKVEIK
modifications: MMAE via mc-vc-PABC linker
acMMAE CL [1, 3]: 1.06 ± 0.35 mL/h/kg
acMMAE Vss [1, 3]: 82.1 ± 21.1 mL/kg
acMMAE t1/2 [1, 3]: 5.01 ± 1.45 days
acMMAE Vss [1, 4]: 94.6 [32.4] mL/kg
acMMAE t1/2 [1, 4]: 5.42 [1.91] day
systemic unconjugated MMAE exposure, fold less than acMMAE exposure ([1]; human, in vivo): approximately 100 fold
Total Antibody AUCinf [1, 5]: 33.2 µg·days/mL
Total Antibody Cmax [1, 5]: 13000 ng/mL
acMMAE AUCinf [1, 5]: 386 ng·days/mL
acMMAE Cmax [1, 5]: 227 ng/mL
Unconjugated MMAE Cmax ([1]; q1w 1st dose, 0.8 mg/kg, OC, n = 2): 1.24 ng/mL
Total Antibody AUCinf [1, 6]: 56.1 µg·days/mL
Total Antibody Cmax [1, 6]: 17700 ng/mL
Unconjugated MMAE Cmax [1, 6]: 3.23 ng/mL
acMMAE Cmax [1, 6]: 301 ng/mL
acMMAE AUCinf ([1]; q1w 1st dose, 1.1 mg/kg, OC, n = 6): 612 ng·days/mL
Total Antibody AUCinf [1, 7]: 73.0 µg·days/mL
Total Antibody Cmax [1, 7]: 23900 ng/mL
Unconjugated MMAE Cmax [1, 7]: 3.73 ng/mL
acMMAE Cmax [1, 7]: 449 ng/mL
acMMAE AUCinf ([1]; q1w 1st dose, 1.4 mg/kg, OC, n = 5): 813 ng·days/mL
Total Antibody AUCinf [1, 8]: 55.7 µg·days/mL
Total Antibody Cmax [1, 8]: 17300 ng/mL
Unconjugated MMAE Cmax [1, 8]: 7.59 ng/mL
acMMAE AUCinf [1, 8]: 542 ng·days/mL
acMMAE Cmax [1, 8]: 204 ng/mL
Total Antibody AUCinf [1, 9]: 82.3 µg·days/mL
Total Antibody Cmax [1, 9]: 29700 ng/mL
Unconjugated MMAE Cmax [1, 9]: 5.75 ng/mL
acMMAE AUCinf [1, 9]: 957 ng·days/mL
acMMAE Cmax [1, 9]: 539 ng/mL
Total Antibody Cmax [1, 10]: 6650 ng/mL
Unconjugated MMAE AUCinf [1, 10]: 4.33 ng·days/mL
Unconjugated MMAE Cmax [1, 10]: 0.675 ng/mL
acMMAE AUCinf [1, 10]: 135 ng·days/mL
acMMAE Cmax [1, 10]: 93.3 ng/mL
Total Antibody AUCinf ([1]; q3w 1st cycle, 0.3 mg/kg, OC, n = 2): 13.1 µg·days/mL
Total Antibody AUCinf [1, 11]: 29.5 µg·days/mL
Total Antibody Cmax [1, 11]: 16600 ng/mL
Unconjugated MMAE AUCinf [1, 11]: 10.3 ng·days/mL
Unconjugated MMAE Cmax [1, 11]: 2.03 ng/mL
acMMAE AUCinf [1, 11]: 310 ng·days/mL
acMMAE Cmax [1, 11]: 226 ng/mL
Total Antibody AUCinf [1, 12]: 81.8 µg·days/mL
Total Antibody Cmax [1, 12]: 22500 ng/mL
Unconjugated MMAE AUCinf [1, 12]: 19.2 ng·days/mL
Unconjugated MMAE Cmax [1, 12]: 2.84 ng/mL
acMMAE AUCinf [1, 12]: 715 ng·days/mL
acMMAE Cmax [1, 12]: 337 ng/mL
Total Antibody AUCinf [1, 13]: 106.0 µg·days/mL
Total Antibody Cmax [1, 13]: 35500 ng/mL
Unconjugated MMAE AUCinf [1, 13]: 33.1 ng·days/mL
Unconjugated MMAE Cmax [1, 13]: 4.7 ng/mL
acMMAE AUCinf [1, 13]: 1050 ng·days/mL
acMMAE Cmax [1, 13]: 618 ng/mL
Total Antibody AUCinf [1, 14]: 178.0 µg·days/mL
Total Antibody Cmax [1, 14]: 42200 ng/mL
Unconjugated MMAE Cmax [1, 14]: 6.77 ng/mL
acMMAE AUCinf [1, 14]: 1850 ng·days/mL
acMMAE Cmax [1, 14]: 860 ng/mL and 860 [216] ng/mL
Unconjugated MMAE AUCinf ([1]; q3w 1st cycle, 2.4 mg/kg, OC, n = 28): 55.5 ng·days/mL
Total Antibody AUCinf [1, 15]: 167.0 µg·days/mL
Total Antibody Cmax [1, 15]: 38900 ng/mL
Unconjugated MMAE AUCinf [1, 15]: 63.6 ng·days/mL
Unconjugated MMAE Cmax [1, 15]: 7.7 ng/mL
acMMAE AUCinf [1, 15]: 1680 ng·days/mL
acMMAE Cmax [1, 15]: 737 ng/mL and 737 [115] ng/mL
Total Antibody AUCinf [1, 16]: 324.0 µg·days/mL
Total Antibody Cmax [1, 16]: 71400 ng/mL
Unconjugated MMAE Cmax [1, 16]: 20 ng/mL
acMMAE AUCinf [1, 16]: 3380 ng·days/mL
acMMAE Cmax [1, 16]: 1220 ng/mL
Unconjugated MMAE AUCinf ([1]; q3w 1st cycle, 3.2 mg/kg, OC, n = 1): 111 ng·days/mL
increase of exposure of acMMAE or total antibody (Cmax or AUCinf, Cycle 1) with dose ([1]; q3w and q1w cohorts, 0.3-3.2 mg/kg, nonlinear PK): not dose proportional
Best response: Complete response, patients ([2]; 0.8 mg/kg q1w (N = 3)): 0
Best response: Partial response, patients ([2]; 0.8 mg/kg q1w (N = 3)): 1
Best response: Progressive disease, patients ([2]; 0.8 mg/kg q1w (N = 3)): 0
Best response: Stable disease, patients ([2]; 0.8 mg/kg q1w (N = 3)): 2
Best response: Unable to evaluate, patients ([2]; 0.8 mg/kg q1w (N = 3)): 0
Duration of response, Median ([2]; 0.8 mg/kg q1w (N = 3)): 3.0 months
Duration of response, Range ([2]; 0.8 mg/kg q1w (N = 3)): 3.0-3.0 months
unconfirmed partial responses, patients ([2]; 1.1 mg/kg q1w): 1
Best response: Complete response, patients ([2]; 1.1 mg/kg q1w (N = 7)): 0
Best response: Partial response, patients ([2]; 1.1 mg/kg q1w (N = 7)): 1
Best response: Progressive disease, patients ([2]; 1.1 mg/kg q1w (N = 7)): 3
Best response: Stable disease, patients ([2]; 1.1 mg/kg q1w (N = 7)): 3
Best response: Unable to evaluate, patients ([2]; 1.1 mg/kg q1w (N = 7)): 0
Duration of response, Median ([2]; 1.1 mg/kg q1w (N = 7)): 6.8 months
Duration of response, Range ([2]; 1.1 mg/kg q1w (N = 7)): 6.8-6.8 months
minor responses, patients ([2]; 1.2 mg/kg q3w): 1
minor responses, patients ([2]; 1.4 mg/kg q1w): 1
Best response: Complete response, patients ([2]; 1.4 mg/kg q1w (N = 6)): 0
Best response: Partial response, patients ([2]; 1.4 mg/kg q1w (N = 6)): 1
Best response: Progressive disease, patients ([2]; 1.4 mg/kg q1w (N = 6)): 2
Best response: Stable disease, patients ([2]; 1.4 mg/kg q1w (N = 6)): 2
Best response: Unable to evaluate, patients ([2]; 1.4 mg/kg q1w (N = 6)): 1
Duration of response, Median ([2]; 1.4 mg/kg q1w (N = 6)): 4.6 months
Duration of response, Range ([2]; 1.4 mg/kg q1w (N = 6)): 4.6-4.6 months
minor responses, patients ([2]; 1.6 mg/kg q1w): 1
minor responses, patients ([2]; 2.4 mg/kg q3w): Two
unconfirmed partial responses, patients ([2]; 2.4 mg/kg q3w): 1
Best response: Complete response, patients ([2]; 2.4 mg/kg q3w (N = 29)): 1
Best response: Partial response, patients ([2]; 2.4 mg/kg q3w (N = 29)): 3
Best response: Progressive disease, patients ([2]; 2.4 mg/kg q3w (N = 29)): 6
Best response: Stable disease, patients ([2]; 2.4 mg/kg q3w (N = 29)): 17
Best response: Unable to evaluate, patients ([2]; 2.4 mg/kg q3w (N = 29)): 2
Duration of response, Median ([2]; 2.4 mg/kg q3w (N = 29)): 4.9 months
Duration of response, Range ([2]; 2.4 mg/kg q3w (N = 29)): 3.0-11.3 months
minor responses, patients ([2]; 3.2 mg/kg q3w): 1
average length of time on the study ([2]; FIG. 4): 103 days
decrease in SLD of target lesions ([2]; a patient at 3.2 mg/kg q3w, PD as overall status due to new lesions): > 30%
patients on the study ≥105 days ([2]; of the 29 patients at 2.4 mg/kg q3w): Sixteen
reduction (MRI), complete response ([2]; person, 2.4 mg/kg IV q3w, after two doses): 100%
tumor response nadir, reduction ([2]; person, 2.4 mg/kg, after 8 doses): 88%
reduction in 3 target lesions (CT), partial response ([2]; person, 2.4 mg/kg, after two doses): 37%
confirmed responses ([2]; q1w cohorts, at 0.8, 1.1, and 1.4 mg/kg levels): 3
